Test results: patent US20250011363A1, “OPTIMIZED SHORTENED PEPTIDE THAT BINDS TO ACETYLCHOLINE RECEPTOR, AND USE THEREOF” (SKINMED CO., LTD., priority 2021, published 2025)

B1: 6mer-2-797 (peptide)
peptide: RHCIKR
B2: 6mer-2-789 (peptide)
peptide: KNENRK
B3: 6mer-2-798 (peptide)
peptide: RDTPKK
B4: 6mer-2-791 (peptide)
peptide: KNMNRK
B5: 6mer-2-795 (peptide)
peptide: RTHNKR
B6: 6mer-2-796 (peptide)
peptide: RMMARR
B7: 6mer-2-793 (peptide)
peptide: RMHKKR
B8: 6mer-2-788 (peptide)
peptide: KKEKKK
B9: 6mer-2-790 (peptide)
peptide: RCAGRR
B10: 6mer-2-794 (peptide)
peptide: KAEMRR
B11: 6mer-2-792 (peptide)
peptide: RAEDKR
B12: 6mer-1-810 (peptide)
peptide: RKCNAR
B13: 6mer-1-839 (peptide)
peptide: KRNWAK
B14: 6mer-1-844 (peptide)
peptide: KKPMNR
B15: 6mer-1-860 (peptide)
peptide: RKHWWR
B16: 6mer-1-803 (peptide)
peptide: RKMKHK
B17: 6mer-1-856 (peptide)
peptide: KRMWFK
B18: 6mer-1-818 (peptide)
peptide: RKIKAR
B19: 6mer-1-809 (peptide)
peptide: KKKSNR
B20: 6mer-1-829 (peptide)
peptide: RRIHKK
B21: 6mer-1-832 (peptide)
peptide: RKYWGK
B22: 6mer-1-814 (peptide)
peptide: KKCNAK
B23: 6mer-1-865 (peptide)
peptide: KKMTAR
B24: 6mer-1-808 (peptide)
peptide: RRFEKK
B25: 6mer-1-815 (peptide)
peptide: RRFEMR
B26: 6mer-1-831 (peptide)
peptide: KKNPWK
B27: 6mer-1-799 (peptide)
peptide: RRKKKR
B28: 6mer-1-800 (peptide)
peptide: RREHIR
B29: 6mer-1-848 (peptide)
peptide: RKTMFK
B30: 6mer-1-836 (peptide)
peptide: RRCMIK
B31: 6mer-1-835 (peptide)
peptide: KRTADK
B32: 6mer-1-822 (peptide)
peptide: KREPIK
B33: 6mer-1-821 (peptide)
peptide: RRTTNR
B34: 6mer-1-855 (peptide)
peptide: RKCDVR
B35: 6mer-1-846 (peptide)
peptide: RKDAEK
B36: 6mer-1-820 (peptide)
peptide: KRNDGK
B37: 6mer-1-834 (peptide)
peptide: KRNTIR
B38: 6mer-1-845 (peptide)
peptide: KKIDKK
B39: 6mer-1-840 (peptide)
peptide: RKICNK
B40: 6mer-1-861 (peptide)
peptide: KRINIR
B41: 6mer-1-819 (peptide)
peptide: KRMHAK
B42: 6mer-1-827 (peptide)
peptide: RKKKFR
B43: 6mer-1-850 (peptide)
peptide: RRNPEK
B44: 6mer-1-825 (peptide)
peptide: RKEKWK
B45: 6mer-1-824 (peptide)
peptide: KKMNIK
B46: 6mer-1-858 (peptide)
peptide: KKKHKR
B47: 6mer-1-812 (peptide)
peptide: RKDHMK
B48: 6mer-1-802 (peptide)
peptide: RKYHGR
B49: 6mer-1-857 (peptide)
peptide: KRPAFK
B50: 6mer-1-852 (peptide)
peptide: KRASVK
B51: 6mer-1-838 (peptide)
peptide: KRNTWK
B52: 6mer-1-811 (peptide)
peptide: KRHCHK
B53: 6mer-1-847 (peptide)
peptide: KKYNHK
B54: 6mer-1-826 (peptide)
peptide: KKAHMR
B55: 6mer-1-828 (peptide)
peptide: RRPNMK
B56: 6mer-1-801 (peptide)
peptide: KKCAVK
B57: 6mer-1-807 (peptide)
peptide: RRDKNR
B58: 6mer-1-851 (peptide)
peptide: RRYMEK
B59: 6mer-1-804 (peptide)
peptide: KRDPFR
B60: 6mer-1-805 (peptide)
peptide: KRDTMK
B61: 6mer-1-841 (peptide)
peptide: KKDAPR
B62: 6mer-1-806 (peptide)
peptide: RKKTIR
B63: 6mer-1-823 (peptide)
peptide: KRHTGK
B64: 6mer-1-862 (peptide)
peptide: KKHSEK
B65: 6mer-1-813 (peptide)
peptide: RREDFK
B66: 6mer-1-843 (peptide)
peptide: KKKTIK
B67: 6mer-1-842 (peptide)
peptide: RRFANK
B68: 6mer-1-864 (peptide)
peptide: RRTWGR
B69: 6mer-1-863 (peptide)
peptide: RRCTER
B70: 6mer-1-830 (peptide)
peptide: KKTTMK
B71: 6mer-1-837 (peptide)
peptide: KRDHAK
B72: 6mer-1-859 (peptide)
peptide: RKCMVK
B73: 6mer-1-816 (peptide)
peptide: RKIDFK
B74: 6mer-1-817 (peptide)
peptide: RRIMKR
B75: 6mer-1-849 (peptide)
peptide: KKFNWK
B76: 6mer-1-833 (peptide)
peptide: RRYKNR
B77: 6mer-1-854 (peptide)
peptide: KKEAVR
B78: 6mer-1-853 (peptide)
peptide: KRCNGR

What follows are binders tested against acetylcholine receptor (assay: SPR, AchR immobilised on CM5 chip, peptide 10 uM).

| Binder | Binding affinity (RU) |
| --- | --- |
| B1 | 19 |
| B2 | 24 |
| B3 | 17 |
| B4 | 27 |
| B5 | 16 |
| B6 | 32 |
| B7 | 29 |
| B8 | 30 |
| B9 | 23 |
| B10 | 19 |
| B11 | 13 |

What follows are binders tested against acetylcholine receptor (assay: SPR, AchR immobilized on CM5 chip, peptide at 10 uM).

| Binder | Binding affinity (RU) |
| --- | --- |
| B12 | 12 |
| B13 | 29 |
| B14 | 28 |
| B15 | 22 |
| B16 | 31 |
| B17 | 30 |
| B18 | 14 |
| B19 | 12 |
| B20 | 25 |
| B21 | 12 |
| B22 | 15 |
| B23 | 21 |
| B24 | 24 |
| B25 | 23 |
| B26 | 15 |
| B27 | 30 |
| B28 | 15 |
| B29 | 19 |
| B30 | 22 |
| B31 | 26 |
| B32 | 17 |
| B33 | 22 |
| B34 | 15 |

| Binder | Binding affinity (RU) |
| --- | --- |
| B35 | 28 |
| B36 | 12 |
| B37 | 17 |
| B38 | 23 |
| B39 | 12 |
| B40 | 21 |
| B41 | 17 |
| B42 | 30 |
| B43 | 29 |
| B44 | 30 |
| B45 | 12 |
| B46 | 27 |
| B47 | 26 |
| B48 | 32 |
| B49 | 14 |
| B50 | 19 |
| B51 | 17 |
| B52 | 16 |
| B53 | 20 |
| B54 | 31 |
| B55 | 26 |
| B56 | 18 |
| B57 | 13 |

| Binder | Binding affinity (RU) |
| --- | --- |
| B58 | 30 |
| B59 | 31 |
| B60 | 24 |
| B61 | 30 |
| B62 | 12 |
| B63 | 12 |
| B64 | 32 |
| B65 | 15 |
| B66 | 28 |
| B67 | 11 |
| B68 | 32 |
| B69 | 27 |
| B70 | 33 |
| B71 | 19 |
| B72 | 27 |
| B73 | 14 |
| B74 | 16 |
| B75 | 21 |
| B76 | 19 |
| B77 | 16 |
| B78 | 30 |
